Source: patent US20050079503A1, “Binding domain of Siah (seven in absentia homolog) protein” (PETER MacCALLUM CANCER INSTITUTE, ST. VINCENT'S INSTITUTE …, priority 2001, published 2005)
“And” between values parts separate entries of the source, which are not always exact repeats. Identical values can stand only once. No end group written: not given here. *: point of attachment. Biotin = O=C1N[C@H]2[C@H](CS[C@H]2CCCCC(=O)*)N1

Assays:
[1] = target: T1, MBP-Siah (Mus musculus, UniProt P61092); assay: Competition assay: peptides as competitors of wild-type PHYL108-130 binding to Siah (96-well plate, anti-MBP detection); settings: competition with immobilised GST-PHYL108-130 for MBP-Siah, 1 hour at room temperature; estimated from inhibition curves; read-out: IC50 (concentration at which 50% inhibition is observed)
T1 construct: made in house
T1 sequence (P61092 1-282): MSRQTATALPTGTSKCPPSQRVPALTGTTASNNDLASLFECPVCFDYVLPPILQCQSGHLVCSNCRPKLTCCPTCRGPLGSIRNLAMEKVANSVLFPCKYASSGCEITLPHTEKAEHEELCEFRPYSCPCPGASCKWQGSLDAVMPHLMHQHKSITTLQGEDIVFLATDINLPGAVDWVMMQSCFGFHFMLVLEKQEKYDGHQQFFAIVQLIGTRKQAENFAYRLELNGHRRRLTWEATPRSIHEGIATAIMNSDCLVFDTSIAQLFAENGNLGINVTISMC
Procedure: Mutant peptides were used in a competition assay in which they were tested as competitors of wild-type PHYL 108-130 binding to Siah. GST-PHYL108-130 was immobilised in wells of a 96-well plate and MBP-Siah was bound for 1 hour at room temperature, in the presence of various concentrations of mutant peptides. After binding and washing, the amount of bound MBP-Siah was quantitated in a two antibody sandwich of anti-MBP antibody, followed by HRP-conjugated goat anti-rabbit antibody, using ABTS as substrate. IC50 (the concentration at which 50% inhibition is observed) values were estimated from the individual inhibition curves.
In order to test this hypothesis Applicants systematically mutated the PHYL peptide, utilising the solid phase pin technology of Mimotopes (Clayton, Victoria, Australia). A full set of peptides, with alanine substituted at each position in the peptide, was synthesised. At positions where a native alanine occurred, glycine was substituted. Mutant peptides were screened for their ability to compete with the binding between Siah and PHYL peptide, then peptides of interest were investigated further utilising surface plasmon resonance.
The initial screen of peptides yielded IC50 values of approximately 50-100 nM for wild-type peptide or peptides with ineffective mutations. […]

[2] = target: T2, MBP-Siah1a (Mus musculus, UniProt P61092); assay: Surface plasmon resonance (Biacore) binding of PHYL108-130 to Siah; settings: Biacore 2000, peptide immobilised on chip, MBP-Siah1a as analyte, read-out: affinity constant
T2 construct: made in house; host or cells: pMalC2 plasmid
T2 sequence (P61092 1-282): T1 sequence (P61092 1-282)
Description: (§1) The binding kinetics for Siah interaction with PHYL108-130 were monitored using surface plasmon resonance on a Biacore 2000. The biotinylated PHYL108-130 peptide was captured on the chip surface by immobilised neutravidin, and MBP-Siah1a was used as analyte.
(§2) To determine binding affinities, synthetic PHYL peptide was immobilised to a C5 BIAcore chip using two different strategies (direct chemical coupling through the free amino group on Lysine113 and binding to coupled avidin via an N-terminal biotin on the peptide) and interaction was measured directly by surface plasmon resonance. This method facilitated the measurement of association and dissociation rates, and the determination of an affinity constant (FIG. 26).

[3] = target: T3, Siah1a SBD (Mus musculus, UniProt P61092); assay: Stoichiometry of the GST-PHYL108-130 / Siah1a SBD complex by gel filtration and N-terminal sequencing; format: binding; settings: complex isolated on Superdex 200; after five cycles of N-terminal sequencing
T3 construct: isolating a complex of GST-PHYL108-130 and Siah1a SBD by gel filtration; made in house; host or cells: E. coli BL21DE3
T3 sequence (P61092 90-282 limits assumed): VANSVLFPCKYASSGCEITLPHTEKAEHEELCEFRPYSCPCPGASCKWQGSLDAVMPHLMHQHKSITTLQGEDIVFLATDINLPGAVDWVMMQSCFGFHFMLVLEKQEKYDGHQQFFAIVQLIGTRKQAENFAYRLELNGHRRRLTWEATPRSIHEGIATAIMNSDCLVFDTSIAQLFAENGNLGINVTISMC
Description: (§3) The stoichiometry of interaction was investigated by isolating a complex of GST-PHYL108-130 and Siah1a SBD by gel filtration on Superdex 200 and quantitating the components by N-terminal sequencing.

[4] = target: T4, Siah (Mus musculus, UniProt P61092); assay: Interaction studies using bacterially expressed proteins; format: binding
T4 construct: made in house; host or cells: bacteria
T4 sequence (P61092 1-282): T1 sequence (P61092 1-282)
Description: PHYL is known to interact and function with SINA, the Drosophila orthologue of mammalian Siah, in the targeted degradation of the transcriptional repressor tramtrack 88 (TTK88). Applicants have shown that it interacts similarly with mammalian Siah.

[5] = target: T5, MBP-Siah1a-ZC fusion protein (mouse, UniProt P61092 80-282); assay: ELISA: biotinylated plectin peptide captured on Neutravidin-coated plate, bound MBP fusion detected with anti-MBP and HRP antibody, ABTS, A405
T5 construct: range 80-282; ZC = zinc fingers plus C-terminus, residues 80-282 of Siah1a, fused to MBP; also called Siah SBD; not shown: linker not described
T5 sequence (looked up): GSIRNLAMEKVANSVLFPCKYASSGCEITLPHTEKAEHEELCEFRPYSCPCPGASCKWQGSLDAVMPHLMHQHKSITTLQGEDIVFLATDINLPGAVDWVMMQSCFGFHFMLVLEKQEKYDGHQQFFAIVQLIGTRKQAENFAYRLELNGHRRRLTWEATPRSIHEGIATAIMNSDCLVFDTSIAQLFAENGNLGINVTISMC
Procedure: Siah SBD binding to the plectin peptide (Biotin-[…]-NH2 corresponding to residues 95-117 of human plectin) was assessed by capturing biotinylated peptide on a 96-well plate coated with 0.5 μg Neutravidin per well. Peptide was captured for 30 min at room temperature at a concentration of 4 μg/ml. MBP-Siah1a-ZC fusion protein was bound to the peptide for 50 min at room temperature (or the controls of buffer alone (PBS/tween 20) or mutant MBP-Siah1a-ZC containing a Leu211 to Arg mutation). Bound protein was quantitated by rabbit anti-MBP antibody (1:300 dilution), then HRP conjugated goat-anti-rabbit antibody. Detection utilised ABTS substrate read at A405.

[6] = target: the molecule itself; assay: size exclusion chromatography (self-association of the Siah1a binding domain)
[7] = target: T6, GST-PHYL108-130 (Drosophila); assay: complex isolated by gel filtration on Superdex 200, components quantitated by N-terminal sequencing (five cycles)
T6 construct: also called PHYL peptide as a fusion protein with glutathione-S-transferase; not shown: glutathione-S-transferase (GST) fusion partner
T6 chain: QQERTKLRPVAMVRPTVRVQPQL
Description: as §3

[8] = target: T7, MBP-Siah1a fusion protein (mouse, UniProt P61092 1-282, limits assumed); assay: SPR, Biacore 2000; biotinylated peptide captured on immobilised neutravidin, MBP-Siah1a as analyte
T7 construct: not shown: linker to Siah1a not described
T7 sequence (looked up): T1 sequence (P61092 1-282)
Description: as §1, §2

QQERTKLRPVAMVRPTVRVQPQL [PHYL108-130]
IC50 [1]: 50 to 100 nM
Kd [2]: ~180 nM and 180 nM

GST-PHYL108-130: PHYL 23-residue peptide expressed as a fusion with glutathione-S-transferase (GST) (QQERTKLRPVAMVRPTVRVQPQL; not fully specified (N-terminus); also: GST fusion)
average ratio of Siah binding domain to GST-PHYL108-130 residues [3]: 2.34±0.38

DCC: deleted in colorectal cancer (DCC)
affinity of interaction with Siah (in words) [4]: lower affinity

B1: plectin peptide (Biotin-ASLQRVRRPVAMVMPARRTPHVQ-NH2) (peptide)
peptide: Biotin-ASLQRVRRPVAMVMPARRTPHVQ-NH2
SMILES: CSCC[C@H](NC(=O)[C@H](C)NC(=O)[C@@H](NC(=O)[C@@H]1CCCN1C(=O)[C@H](CCCNC(=N)N)NC(=O)[C@H](CCCNC(=N)N)NC(=O)[C@@H](NC(=O)[C@H](CCCNC(=N)N)NC(=O)[C@H](CCC(N)=O)NC(=O)[C@H](CC(C)C)NC(=O)[C@H](CO)NC(=O)[C@H](C)NC(=O)CCCC[C@@H]1SC[C@@H]2NC(=O)N[C@@H]21)C(C)C)C(C)C)C(=O)N[C@H](C(=O)N[C@@H](CCSC)C(=O)N1CCC[C@H]1C(=O)N[C@@H](C)C(=O)N[C@@H](CCCNC(=N)N)C(=O)N[C@@H](CCCNC(=N)N)C(=O)N[C@H](C(=O)N1CCC[C@H]1C(=O)N[C@@H](Cc1c[nH]cn1)C(=O)N[C@H](C(=O)N[C@@H](CCC(N)=O)C(N)=O)C(C)C)[C@@H](C)O)C(C)C
notes: also called synthetic peptide corresponding to residues 95-117 of human plectin
binding result [5]: binds

B2: SIP: Siah-interacting protein (SIP) (protein, UniProt Q9HB71 2-228, looked up)
Calcyclin-binding protein: ASEELQKDLEEVKVLLEKATRKRVRDALTAEKSKIETEIKNKMQQKSQKKAELLDNEKPAAVVAPITTGYTVKISNYGWDQSDKFVKIYITLTGVHQVPTENVQVHFTERSFDLLVKNLNGKSYSMIVNNLLKPISVEGSSKKVKTDTVLILCRKKVENTRWDYLTQVEKECKEKEKPSYDTETDPSEGLMNVLKKIYEDGDDDMKRTINKAWVESREKQAKGDTEF
affinity of interaction with Siah (in words) [4]: lower affinity

B3: OBF-1: Oct-binding factor 1 (OBF-1) (protein, UniProt Q16633 1-256, looked up)
POU domain class …: MLWQKPTAPEQAPAPARPYQGVRVKEPVKELLRRKRGHASSGAAPAPTAVVLPHQPLATYTTVGPSCLDMEGSVSAVTEEAALCAGWLSQPTPATLQPLAPWTPYTEYVPHEAVSCPYSADMYVQPVCPSYTVVGPSSVLTYASPPLITNVTTRSSATPAVGPPLEGPEHQAPLTYFPWPQPLSTLPTSTLQYQPPAPALPGPQFVQLPISIPEPVLQDMEDPRRAASSLTIDKLLLEEEDSDAYALNHTLSVEGF
affinity of interaction with Siah (in words) [4]: lower affinity

B4: Kid: kinesin-like DNA-binding protein (Kid) (protein, UniProt Q14807 1-665, looked up)
Kinesin-like protein KIF22: MAAGGSTQQRRREMAAASAAAISGAGRCRLSKIGATRRPPPARVRVAVRLRPFVDGTAGASDPPCVRGMDSCSLEIANWRNHQETLKYQFDAFYGERSTQQDIYAGSVQPILRHLLEGQNASVLAYGPTGAGKTHTMLGSPEQPGVIPRALMDLLQLTREEGAEGRPWALSVTMSYLEIYQEKVLDLLDPASGDLVIREDCRGNILIPGLSQKPISSFADFERHFLPASRNRTVGATRLNQRSSRSHAVLLVKVDQRERLAPFRQREGKLYLIDLAGSEDNRRTGNKGLRLKESGAINTSLFVLGKVVDALNQGLPRVPYRDSKLTRLLQDSLGGSAHSILIANIAPERRFYLDTVSALNFAARSKEVINRPFTNESLQPHALGPVKLSQKELLGPPEAKRARGPEEEEIGSPEPMAAPASASQKLSPLQKLSSMDPAMLERLLSLDRLLASQGSQGAPLLSTPKRERMVLMKTVEEKDLEIERLKTKQKELEAKMLAQKAEEKENHCPTMLRPLSHRTVTGAKPLKKAVVMPLQLIQEQAASPNAEIHILKNKGRKRKLESLDALEPEEKAEDCWELQISPELLAHGRQKILDLLNEGSARDLRSLQRIGPKKAQLIVGWRELHGPFSQVEDLERVEGITGKQMESFLKANILGLAAGQRCGAS
affinity of interaction with Siah (in words) [4]: lower affinity

B5: Siah1a binding domain (purified tryptic fragment) (other, mouse, UniProt P61092 90-282, looked up)
chain: T3 sequence (P61092 90-282 limits assumed)
modifications: two 2-mercaptoethanol adducts on cysteines in the purified form (21,838 Da; 21,685 Da when reduced)
notes: Dimer by size exclusion chromatography and in the crystal; Start residue must be found by locating VANSV on Siah1a; also called Siah1a SBD
binding result [6]: binds
average ratio of Siah binding domain to GST-PHYL108-130 residues (stoichiometry) [7]: 2.34 mol/mol

Biotin-QQERTKLRPVAMVRPTVRVQPQL (also called synthetic PHYL peptide) [biotinylated PHYL108-130 peptide]
Kd [8]: 180 nM
